Test [1] addresses AT4G20400.1 JMJ14 (Arabidopsis thaliana), Q8GUI6. Nature of the test: IP-MS rep 1. Particulars: remark: other sources report otherwise.
Test [2] has as its target T1, AT5G17690.1 LHP1 (Arabidopsis thaliana), Q946J8.
T1 chain: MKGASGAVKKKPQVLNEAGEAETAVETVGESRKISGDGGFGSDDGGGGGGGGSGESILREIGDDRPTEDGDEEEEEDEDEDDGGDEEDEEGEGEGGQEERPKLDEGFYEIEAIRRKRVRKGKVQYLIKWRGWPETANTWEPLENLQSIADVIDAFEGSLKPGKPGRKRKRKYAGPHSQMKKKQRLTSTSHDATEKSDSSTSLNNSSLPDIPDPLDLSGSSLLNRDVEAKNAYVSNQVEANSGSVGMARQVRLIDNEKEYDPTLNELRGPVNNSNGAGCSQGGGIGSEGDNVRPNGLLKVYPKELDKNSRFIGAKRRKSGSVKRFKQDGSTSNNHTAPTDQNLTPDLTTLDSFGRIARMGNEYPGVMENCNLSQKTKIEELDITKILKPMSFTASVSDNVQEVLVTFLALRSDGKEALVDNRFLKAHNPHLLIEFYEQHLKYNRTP
Nature of the test: IP-MS rep 1. Particulars: remark: other sources report otherwise.

For test [3], the target named is AT4G20400.1 JMJ14 (Arabidopsis thaliana), Q8GUI6. Nature of the test: IP-MS rep 2. As to conditions: remark: other sources report otherwise.
Test [4] addresses T1, AT5G17690.1 LHP1 (Arabidopsis …). The experiment in a line: IP-MS rep 2. Particulars: remark: other sources report otherwise.
The target of test [5] is AT4G20400.1 JMJ14 (Arabidopsis thaliana), Q8GUI6. Nature of the test: X-link IP-MS. As to conditions: remark: other sources report otherwise.
The target of test [6] is T1, AT5G17690.1 LHP1 (Arabidopsis …). Nature of the test: X-link IP-MS. Particulars: remark: other sources report otherwise.
Test [7] deals with T2, AT4G02020.1 SWN (Arabidopsis thaliana) (UniProt Q9ZSM8).
T2 sequence (looked up): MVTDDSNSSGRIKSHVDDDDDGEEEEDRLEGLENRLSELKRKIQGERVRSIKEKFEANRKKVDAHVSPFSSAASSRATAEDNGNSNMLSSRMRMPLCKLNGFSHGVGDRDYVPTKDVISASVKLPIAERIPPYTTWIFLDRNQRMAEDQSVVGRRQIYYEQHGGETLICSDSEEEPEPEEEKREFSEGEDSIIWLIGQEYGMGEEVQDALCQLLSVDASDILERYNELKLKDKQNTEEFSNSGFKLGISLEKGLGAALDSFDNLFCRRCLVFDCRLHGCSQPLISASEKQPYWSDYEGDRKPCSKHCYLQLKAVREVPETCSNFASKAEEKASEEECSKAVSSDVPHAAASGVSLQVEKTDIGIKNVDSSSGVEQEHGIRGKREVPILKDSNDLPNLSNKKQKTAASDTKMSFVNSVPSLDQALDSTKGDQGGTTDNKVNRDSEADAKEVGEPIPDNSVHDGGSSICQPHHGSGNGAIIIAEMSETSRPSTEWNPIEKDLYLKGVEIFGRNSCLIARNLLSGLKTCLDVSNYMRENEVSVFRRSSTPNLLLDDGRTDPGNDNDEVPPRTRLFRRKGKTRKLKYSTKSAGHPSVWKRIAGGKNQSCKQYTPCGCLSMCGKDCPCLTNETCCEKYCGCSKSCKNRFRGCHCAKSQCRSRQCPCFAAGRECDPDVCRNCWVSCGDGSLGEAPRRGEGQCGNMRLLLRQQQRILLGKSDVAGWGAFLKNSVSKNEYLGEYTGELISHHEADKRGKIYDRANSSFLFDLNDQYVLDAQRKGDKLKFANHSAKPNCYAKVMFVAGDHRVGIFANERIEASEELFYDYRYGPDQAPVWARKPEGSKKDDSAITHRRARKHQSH
Nature of the test: IP-MS rep 1.

Test [8] addresses T2, AT4G02020.1 SWN (Arabidopsis thaliana). Nature of the test: IP-MS rep 2.
Test [9] has the same target. The experiment in a line: X-link IP-MS.
Test [10] concerns the target T3, AT5G67580.1 TRB2 (Arabidopsis thaliana) (UniProt Q9FJW5).
T3 sequence: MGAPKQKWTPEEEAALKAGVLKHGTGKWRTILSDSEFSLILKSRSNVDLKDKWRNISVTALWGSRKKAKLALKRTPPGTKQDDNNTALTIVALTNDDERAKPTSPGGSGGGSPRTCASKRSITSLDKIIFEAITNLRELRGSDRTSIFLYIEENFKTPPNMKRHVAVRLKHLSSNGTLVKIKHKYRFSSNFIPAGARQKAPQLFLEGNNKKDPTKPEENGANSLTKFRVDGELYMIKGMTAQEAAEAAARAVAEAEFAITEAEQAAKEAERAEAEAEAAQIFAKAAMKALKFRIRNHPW
Nature of the test: IP-MS rep 1.

Test [11] has as its target T3, AT5G67580.1 TRB2 (Arabidopsis thaliana). Nature of the test: IP-MS rep 2.
For test [12] the target is unchanged. The experiment in a line: X-link IP-MS.
Test [13] addresses T4, AT5G17690.1 LHP1 (Arabidopsis thaliana) (UniProt Q946J8).
T4 sequence: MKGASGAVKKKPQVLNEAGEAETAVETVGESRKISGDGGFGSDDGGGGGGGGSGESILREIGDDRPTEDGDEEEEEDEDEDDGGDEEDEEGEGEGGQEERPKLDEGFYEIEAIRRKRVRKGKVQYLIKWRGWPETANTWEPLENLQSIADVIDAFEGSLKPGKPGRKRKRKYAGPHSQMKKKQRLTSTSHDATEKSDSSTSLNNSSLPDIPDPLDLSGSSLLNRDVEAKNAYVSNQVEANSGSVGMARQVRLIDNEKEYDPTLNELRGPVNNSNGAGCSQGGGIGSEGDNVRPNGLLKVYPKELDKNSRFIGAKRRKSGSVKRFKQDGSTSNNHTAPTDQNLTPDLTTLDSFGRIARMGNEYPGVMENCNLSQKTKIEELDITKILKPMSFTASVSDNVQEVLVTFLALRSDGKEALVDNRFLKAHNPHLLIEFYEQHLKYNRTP
The experiment in a line: IP-MS rep 1.

The target in test [14] is T4, AT5G17690.1 LHP1 (Arabidopsis thaliana). Nature of the test: IP-MS rep 2.
In test [15] the target is T5, AT3G49850.1 TRB3 (Arabidopsis thaliana) (UniProt Q9M2X3).
T5 sequence: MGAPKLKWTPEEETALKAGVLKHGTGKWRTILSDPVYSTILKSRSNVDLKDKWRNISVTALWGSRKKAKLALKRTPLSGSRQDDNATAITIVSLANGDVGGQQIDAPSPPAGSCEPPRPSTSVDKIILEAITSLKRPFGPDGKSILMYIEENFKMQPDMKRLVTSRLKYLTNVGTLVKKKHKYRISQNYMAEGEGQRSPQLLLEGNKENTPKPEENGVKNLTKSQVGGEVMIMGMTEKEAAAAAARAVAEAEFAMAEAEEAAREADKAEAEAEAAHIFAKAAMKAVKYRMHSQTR
Nature of the test: IP-MS rep 1.

The target in test [16] is T5, AT3G49850.1 TRB3 (Arabidopsis thaliana). The experiment in a line: IP-MS rep 2.
Test [17] shares this target. The experiment in a line: X-link IP-MS.

AT4G20400.1 JMJ14 (Arabidopsis thaliana), Q8GUI6, sequence (Q8GUI6 whole entry): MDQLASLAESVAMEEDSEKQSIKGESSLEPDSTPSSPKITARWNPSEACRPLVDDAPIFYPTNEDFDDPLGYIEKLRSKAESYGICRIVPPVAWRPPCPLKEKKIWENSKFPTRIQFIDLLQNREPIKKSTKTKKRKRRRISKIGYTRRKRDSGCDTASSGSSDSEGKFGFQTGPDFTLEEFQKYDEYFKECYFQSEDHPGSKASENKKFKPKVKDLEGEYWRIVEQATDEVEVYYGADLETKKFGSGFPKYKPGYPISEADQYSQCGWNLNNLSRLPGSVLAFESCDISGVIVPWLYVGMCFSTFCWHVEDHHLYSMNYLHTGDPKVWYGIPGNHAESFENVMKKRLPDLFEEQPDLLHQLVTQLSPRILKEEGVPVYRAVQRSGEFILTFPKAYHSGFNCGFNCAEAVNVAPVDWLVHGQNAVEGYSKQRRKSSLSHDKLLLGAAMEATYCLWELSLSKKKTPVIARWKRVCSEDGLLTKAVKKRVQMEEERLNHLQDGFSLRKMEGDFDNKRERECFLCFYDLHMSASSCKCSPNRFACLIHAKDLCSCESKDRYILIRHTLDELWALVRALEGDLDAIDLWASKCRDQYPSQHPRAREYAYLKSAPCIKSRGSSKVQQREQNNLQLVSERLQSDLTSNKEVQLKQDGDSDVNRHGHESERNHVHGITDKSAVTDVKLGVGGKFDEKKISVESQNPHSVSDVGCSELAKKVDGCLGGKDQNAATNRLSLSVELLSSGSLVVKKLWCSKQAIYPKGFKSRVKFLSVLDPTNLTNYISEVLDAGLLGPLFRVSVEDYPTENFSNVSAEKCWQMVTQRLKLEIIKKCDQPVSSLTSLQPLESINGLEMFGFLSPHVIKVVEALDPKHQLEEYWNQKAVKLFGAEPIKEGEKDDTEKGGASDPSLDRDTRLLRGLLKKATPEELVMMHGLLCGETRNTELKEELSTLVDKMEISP

B1: FLAG-TRB1, Q8VWK4 1-300 (protein, not shown: small tags and cut ends)
chain: MGAPKQKWTQEEESALKSGVIKHGPGKWRTILKDPEFSGVLYLRSNVDLKDKWRNMSVMANGWGSREKSRLAVKRTFSLPKQEENSLALTNSLQSDEENVDATSGLQVSSNPPPRRPNVRLDSLIMEAIATLKEPGGCNKTTIGAYIEDQYHAPPDFKRLLSTKLKYLTSCGKLVKVKRKYRIPNSTPLSSHRRKGLGVFGGKQRTSSLPSPKTDIDEVNFQTRSQIDTEIARMKSMNVHEAAAVAAQAVAEAEAAMAEAEEAAKEAEAAEAEAEAAQAFAEEASKTLKGRNICKMMIRA
As to B1, the IP-MS count in [1] is 34; in test [2], 0; in [3], 35; in test [4], 1; in test [5] it was 77; in test [6], 0.

B2: FLAG-TRB1 (protein, not shown: small tags and cut ends)
chain: MGAPKQKWTQEEESALKSGVIKHGPGKWRTILKDPEFSGVLYLRSNVDLKDKWRNMSVMANGWGSREKSRLAVKRTFSLPKQEENSLALTNSLQSDEENVDATSGLQVSSNPPPRRPNVRLDSLIMEAIATLKEPGGCNKTTIGAYIEDQYHAPPDFKRLLSTKLKYLTSCGKLVKVKRKYRIPNSTPLSSHRRKGLGVFGGKQRTSSLPSPKTDIDEVNFQTRSQIDTEIARMKSMNVHEAAAVAAQAVAEAEAAMAEAEEAAKEAEAAEAEAEAAQAFAEEASKTLKGRNICKMMIRA
B2: the IP-MS count is 1 in test [7], 0 in [8] and 2 in test [9].

B3: FLAG-TRB3 (protein, not shown: small tags and cut ends)
chain: MGAPKLKWTPEEETALKAGVLKHGTGKWRTILSDPVYSTILKSRSNVDLKDKWRNISVTALWGSRKKAKLALKRTPLSGSRQDDNATAITIVSLANGDVGGQQIDAPSPPAGSCEPPRPSTSVDKIILEAITSLKRPFGPDGKSILMYIEENFKMQPDMKRLVTSRLKYLTNVGTLVKKKHKYRISQNYMAEGEGQRSPQLLLEGNKENTPKPEENGVKNLTKSQVGGEVMIMGMTEKEAAAAAARAVAEAEFAMAEAEEAAREADKAEAEAEAAHIFAKAAMKAVKYRMHSQTR
For B3, the IP-MS count in test [10] turned out to be 12; in test [11], 11; in test [12], 11.

B4: FLAG-TRB3, Q9M2X3 1-295 (protein, not shown: small tags and cut ends)
chain: MGAPKLKWTPEEETALKAGVLKHGTGKWRTILSDPVYSTILKSRSNVDLKDKWRNISVTALWGSRKKAKLALKRTPLSGSRQDDNATAITIVSLANGDVGGQQIDAPSPPAGSCEPPRPSTSVDKIILEAITSLKRPFGPDGKSILMYIEENFKMQPDMKRLVTSRLKYLTNVGTLVKKKHKYRISQNYMAEGEGQRSPQLLLEGNKENTPKPEENGVKNLTKSQVGGEVMIMGMTEKEAAAAAARAVAEAEFAMAEAEEAAREADKAEAEAEAAHIFAKAAMKAVKYRMHSQTR
Regarding B4, the figures for the IP-MS count in [1], in test [3] and in test [5] were 13, 12 and 72, respectively.

B5: TRBIP2 (bait of the TRBIP2 IP-MS) (protein, not shown: small tags and cut ends)
chain: MATNACLESDSLLPPRKRLLAGFKNQNSRISNESPSPPFASSSSSTTTSNGSSASAVVHTHHLDHLLNDQTRSPEELAQASKATAALAVKVAKAARATANEKAIIASKAVAAAKNALELFASFPAAETVSCKEPRLIRAINNSPRVLTDCSGHRNKKQKTLTSTMNDGNDVAGVVDSDDGTRVNGKLLLCDNTLKEKTEEESSSLGKRRGRVKLPLSMCAYKDQENGITLEENNLSVSKSEGYNGGVAQVIERPSWKCQDLKSPECVKQNKVVRS
As for B5, the IP-MS count in [13] was 2; in [14], 1.

B6: FLAG-TRB2 (protein, not shown: small tags and cut ends)
chain: MGAPKQKWTPEEEAALKAGVLKHGTGKWRTILSDSEFSLILKSRSNVDLKDKWRNISVTALWGSRKKAKLALKRTPPGTKQDDNNTALTIVALTNDDERAKPTSPGGSGGGSPRTCASKRSITSLDKIIFEAITNLRELRGSDRTSIFLYIEENFKTPPNMKRHVAVRLKHLSSNGTLVKIKHKYRFSSNFIPAGARQKAPQLFLEGNNKKDPTKPEENGANSLTKFRVDGELYMIKGMTAQEAAEAAARAVAEAEFAITEAEQAAKEAERAEAEAEAAQIFAKAAMKALKFRIRNHPW
Regarding B6, the results for the IP-MS count in [15], in test [16] and in test [17] were 0, 0 and 4, respectively.

For the origin of these results see US20250042956A1.
